# Results taken from patent EP4591887A1, “GPC3 ANTIBODY-DRUG CONJUGATE AND USE THEREOF” (priority 2022, dated 2024).
# B1: GC33-L1-D1 (antibody, V domains shown)
# VH: QVQLVQSGAEVKKPGASVKVSCKASGYTFTDYEMHWVRQAPGQGLEWMGALDPKTGDTAYSQKFKGRVTLTADKSTSTAYMELSSLTSEDTAVYYCTRFYSYTYWGQGTLVTVSS
# VL: DVVMTQSPLSLPVTPGEPASISCRSSQSLVHSNGNTYLHWYLQKPGQSPQLLIYKVSNRFSGVPDRFSGSGSGTDFTLKISRVEAEDVGVYYCSQNTHVPPTFGQGTKLEIK
# modifications: MC-vc-PAB-MMAE (L1-D1) on cysteine thiols of the antibody freed by TCEP reduction of disulfide bonds; positions not given
# Experiments:
# human GPC3 (Glypican-3) [1] = biological target: T1, human GPC3 (Glypican-3) (human, UniProt P51654 25-580); test: cell-based or functional assay
# [2] = test system: PDX model LIV#219 of nude mice with human liver cancer; test: Antitumor activity in LIV#219 liver cancer PDX model; assay type: in vivo, BALB/c nude mice; settings: 3 mg/kg, Day 26
# Procedure: The antitumor activity of GPC3-ADCs was tested in an LIV#219 liver cancer PDX model. The model has a higher expression level of GPC3 RNA, and a positive expression of GPC3 as confirmed by FACS analysis.
# The process of the establishment of a PDX model of nude mice with human liver cancer was as follows: A tumor tissue with a volume size of about 15-30 mm^3 was transplanted subcutaneously under the back of the BALB/c nude mice. When the tumor volume reached 250-360 mm^3, the mice were divided into a total of 4 groups by a randomized block method, with 6 mice per group, ensuring uniformity in tumor volume and balance in body weight between these groups. The groups included a vehicle group, a 3 mg/kg GC33-L1-D1 administration group, a 3 mg/kg Hu 52H5D3B8-7-L1-D1 administration group, and a 3 mg/kg Hu 52H5D3B8-8-L1-D1 administration group.
# Data analysis: During the experiment, the tumor volume was measured twice a week. The calculation formula for the tumor volume (TV) is: TV = l × w^2 / 2, in which l and w represent the measured length and width of the tumor, respectively. According to the measurement results, the relative tumor volume (RTV) was calculated by RTV = Vf / V0, in which V0 is the tumor volume measured at the time of grouping for administration (i.e., Day 0), and Vf is the tumor volume measured on the last day. […]
# human GPC3 (Glypican-3) [3] = biological target: T1, human GPC3 (Glypican-3); test: cell-based or functional assay; remark: listed apart in the source
molecule,measurement,setting,value
B1,"EC50 value of cytotoxicity, HepG2 cells (96 h, PrestoBlue)",human GPC3 (Glypican-3) [1],0.0732 µg/mL
same,"EC50 value of cytotoxicity, Huh7 cells (96 h, PrestoBlue)",human GPC3 (Glypican-3) [1],0.0786 µg/mL
same,relative tumor proliferation rate (T/C) (%),[2],54.90%
same,tumor growth inhibition rate (TGI %),[2],45.10%
same,"Percentage reduction of GPC3 on cell surface (%), Huh7 cells, 2 h at 37°C against ice, FACS",human GPC3 (Glypican-3) [3],63.1%
